# From paper PMC8072242 (Proceedings of the National Academy of Sciences of the …, 2021)
# How the values were obtained:
# [1] = biological target: T1, MsDyP (unencapsulated DyP) (Mycolicibacterium smegmatis, UniProt A0R4G9); type: biochemical
# T1 sequence (A0R4G9 1-343): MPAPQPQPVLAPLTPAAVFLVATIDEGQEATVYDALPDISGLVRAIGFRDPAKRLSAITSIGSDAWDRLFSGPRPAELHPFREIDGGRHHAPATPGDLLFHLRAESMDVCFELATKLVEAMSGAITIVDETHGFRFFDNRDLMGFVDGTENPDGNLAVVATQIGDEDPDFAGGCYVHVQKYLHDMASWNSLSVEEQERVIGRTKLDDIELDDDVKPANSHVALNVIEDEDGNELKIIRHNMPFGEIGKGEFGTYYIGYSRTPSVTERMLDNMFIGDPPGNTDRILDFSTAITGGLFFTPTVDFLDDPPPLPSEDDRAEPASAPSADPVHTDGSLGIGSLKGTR
# [2] = biological target: the molecule itself; assay: cryo-EM structure
Molecule,"peroxidase assay, oxidation monitored at 430 nm [1]",stoichiometry N [2]
Oc1cccc(O)c1O [pyrogallol],utilizing H2O2 as the electron acceptor and pyrogallol (Sigma P0381-25g) as an electron donor,–
"DyP (dye-decolorizing peroxidase), native cargo of the Mycobacterium smegmatis encapsulin (enzyme) MPAPQPQPVLAPLTPAAVFLVATIDEGQEATVYDALPDISGLVRAIGFRDPAKRLSAITSIGSDAWDRLFSGPRPAELHPFREIDGGRHHAPATPGDLLFHLRAESMDVCFELATKLVEAMSGAITIVDETHGFRFFDNRDLMGFVDGTENPDGNLAVVATQIGDEDPDFAGGCYVHVQKYLHDMASWNSLSVEEQERVIGRTKLDDIELDDDVKPANSHVALNVIEDEDGNELKIIRHNMPFGEIGKGEFGTYYIGYSRTPSVTERMLDNMFIGDPPGNTDRILDFSTAITGGLFFTPTVDFLDDPPPLPSEDDRAEPASAPSADPVHTDGSLGIGSLKGTR",–,12
"CFP-29 (29 kDa culture filtrate protein), encapsulin shell protein of Mycobacterium smegmatis (natural protein) MNNLYRDLAPITESAWAEIELEATRTFKRHIAGRRVVDVSGPNGPTTASVSTGHLLDVSPPGDGVIAHLRDAKPLVRLRVPFTVARRDIDDVERGSQDSDWDPVKDAAKKLAFVEDRAIFEGYAAASIEGIRSSSSNPALALPDDAREIPDVIAQALSELRLAGVDGPYSVLLSAETYTKVSETTAHGYPIREHINRLVDGEIIWAPAIDGAFVLSTRGGDFDLQLGTDVSIGYLSHDAEVVHLYMEETMTFLCYTAEASVALTP",–,60
